Source: patent US20240309103A1 (Regeneron, published 2024)

Legend:
[1] = target: T1, mouse NPR1 extracellular domain expressed with a C-terminal mouse IgG2a (mNPR1-mFc) (mouse); experiment: SPR, Tables 21 to 26
T1 chain: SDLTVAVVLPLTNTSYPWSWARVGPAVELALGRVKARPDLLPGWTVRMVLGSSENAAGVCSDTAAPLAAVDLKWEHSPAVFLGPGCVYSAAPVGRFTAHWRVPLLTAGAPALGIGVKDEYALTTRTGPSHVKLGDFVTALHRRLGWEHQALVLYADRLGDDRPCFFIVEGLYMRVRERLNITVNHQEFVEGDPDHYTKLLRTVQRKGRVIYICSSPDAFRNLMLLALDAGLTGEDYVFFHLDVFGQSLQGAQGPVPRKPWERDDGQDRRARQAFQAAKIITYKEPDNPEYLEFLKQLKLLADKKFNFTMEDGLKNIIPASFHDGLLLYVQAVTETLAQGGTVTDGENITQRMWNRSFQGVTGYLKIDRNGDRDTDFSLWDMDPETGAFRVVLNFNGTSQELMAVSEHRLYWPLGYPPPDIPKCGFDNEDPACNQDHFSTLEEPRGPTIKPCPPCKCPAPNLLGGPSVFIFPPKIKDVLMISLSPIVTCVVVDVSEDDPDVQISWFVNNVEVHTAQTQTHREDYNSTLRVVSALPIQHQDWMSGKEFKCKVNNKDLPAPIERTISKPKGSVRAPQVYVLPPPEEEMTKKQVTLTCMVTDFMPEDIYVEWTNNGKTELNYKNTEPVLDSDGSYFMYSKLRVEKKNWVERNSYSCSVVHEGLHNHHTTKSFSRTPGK
Description: (§1) Equilibrium dissociation constant (KD) for different NPR1 reagents binding to purified anti-NPR1 monoclonal antibodies (mAbs) were determined using a real-time surface plasmon resonance based Biacore 4000 biosensor. All binding studies were performed in 10 mM HEPES, 150 mM NaCl, 3 mM EDTA, and 0.05% v/v Surfactant Tween-20, pH 7.4 (HBS-ET) running buffer at 25° C. and 37° C. The Biacore CM5 sensor chip surface was first derivatized by amine coupling with either mouse anti-human Fc specific mAb (GE Healthcare, #BR100839) or goat anti-human Fcy specific polyclonal antibody (Jackson ImmunoResearch Laboratories, #BR-1008-39) to capture anti-NPR1 mAbs.

[2] = target: T2, human NPR1 extracellular domain expressed with a C-terminal myc-myc-hexahistidine (hNPR1-MMH) (human, UniProt P16066 33-473); experiment: SPR, mAb captured, 25 C
T2 construct: also called hNPR.mmh; monomeric human NPR1
How it was run: (§2)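 Biacore 4000 SPR with anti-NPR1 mAbs captured on CM5 chip via amine-coupled mouse anti-human Fc mAb or goat anti-human Fcγ polyclonal; NPR1 reagents flowed as analytes.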

[3] = target: T3, monkey NPR1 extracellular domain expressed with a C-terminal myc-myc-hexahistidine (mfNPR1-MMH) (monkey, UniProt P16066 33-473 (human entry)); experiment: SPR, mAb captured, 25 C
T3 construct: also called monomeric monkey NPR1
T3 chain: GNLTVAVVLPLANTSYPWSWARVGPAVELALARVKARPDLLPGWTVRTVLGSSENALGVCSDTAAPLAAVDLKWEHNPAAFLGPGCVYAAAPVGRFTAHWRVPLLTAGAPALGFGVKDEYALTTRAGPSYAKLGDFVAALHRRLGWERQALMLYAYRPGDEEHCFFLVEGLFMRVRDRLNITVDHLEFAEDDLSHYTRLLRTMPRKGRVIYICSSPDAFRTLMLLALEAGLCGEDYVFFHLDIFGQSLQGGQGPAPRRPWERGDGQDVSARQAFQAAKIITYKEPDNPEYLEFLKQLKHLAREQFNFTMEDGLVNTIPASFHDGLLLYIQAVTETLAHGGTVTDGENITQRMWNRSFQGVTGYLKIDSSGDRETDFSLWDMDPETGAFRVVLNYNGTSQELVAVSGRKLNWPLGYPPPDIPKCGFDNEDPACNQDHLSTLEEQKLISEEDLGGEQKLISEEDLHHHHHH
How it was run: as §2

[4] = target: T4, mouse NPR1 extracellular domain expressed with a C-terminal myc-myc-hexahistidine (mNPR1-MMH) (mouse, UniProt P18293 29-469); experiment: SPR, mAb captured, 25 C
How it was run: as §2

[5] = target: T5, human NPR1 extracellular domain expressed with a C-terminal mouse IgG2a (hNPR1-mFc) (human); experiment: SPR, mAb captured, 25 C
T5 construct: also called hNPR1-Fc; human NPR1 dimer
T5 chain: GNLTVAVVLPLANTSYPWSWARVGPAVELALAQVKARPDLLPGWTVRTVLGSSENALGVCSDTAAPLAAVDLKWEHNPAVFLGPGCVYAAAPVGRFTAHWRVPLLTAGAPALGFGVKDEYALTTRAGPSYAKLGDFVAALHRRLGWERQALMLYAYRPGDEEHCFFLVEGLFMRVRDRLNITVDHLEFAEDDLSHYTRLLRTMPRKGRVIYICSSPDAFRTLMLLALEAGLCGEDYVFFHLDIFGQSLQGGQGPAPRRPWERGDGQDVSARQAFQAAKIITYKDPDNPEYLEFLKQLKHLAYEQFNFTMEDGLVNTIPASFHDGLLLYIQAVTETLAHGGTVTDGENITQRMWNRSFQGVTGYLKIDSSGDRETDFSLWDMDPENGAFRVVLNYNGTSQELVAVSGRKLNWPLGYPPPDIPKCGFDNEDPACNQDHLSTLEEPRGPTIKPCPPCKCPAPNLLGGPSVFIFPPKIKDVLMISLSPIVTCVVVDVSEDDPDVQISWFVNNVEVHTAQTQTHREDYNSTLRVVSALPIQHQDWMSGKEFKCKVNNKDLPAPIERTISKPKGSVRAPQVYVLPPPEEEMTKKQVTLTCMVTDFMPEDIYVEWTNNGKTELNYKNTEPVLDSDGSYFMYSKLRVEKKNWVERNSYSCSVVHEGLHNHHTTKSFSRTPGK
How it was run: as §2

[6] = target: T2, human NPR1 extracellular domain …; experiment: SPR, mAb captured, 37 C
How it was run: as §2

[7] = target: T3, monkey NPR1 extracellular domain …; experiment: SPR, mAb captured, 37 C
How it was run: as §2

[8] = target: T4, mouse NPR1 extracellular domain …; experiment: SPR, mAb captured, 37 C
How it was run: as §2

[9] = target: T5, human NPR1 extracellular domain …; experiment: SPR, mAb captured, 37 C
How it was run: as §2

[10] = target: T5, human NPR1 extracellular domain …; experiment: SPR, mAb captured, 25 C; 25 C
Description: as §1

Row | Binder | binding result [1] | 100 nM Ag Bound (RU) [2] [RU] | Kd [2] [nM] | koff [2] [s⁻¹] | kon [2] [M⁻¹ s⁻¹] | t½ [2] [min] | 100 nM Ag Bound (RU) [3] [RU] | Kd [3] [nM] | koff [3] [s⁻¹] | kon [3] [M⁻¹ s⁻¹] | t½ [3] [min] | 100 nM Ag Bound (RU) [4] [RU] | binding result [4] | 100 nM Ag Bound (RU) [5] [RU] | Kd [5] [nM] | koff [5] [s⁻¹] | 100 nM Ag Bound (RU) [6] [RU] | 100 nM Ag Bound (RU) [7] [RU] | 100 nM Ag Bound (RU) [8] [RU] | 100 nM Ag Bound (RU) [9] [RU] | also measured
1 | mAb25508 (antibody, V domains shown) VH: EVQLVESGGGVVRPGGSLRLSCAASGFNVDDYGMSWVRQIPGKGLEWISGINWNGGRIYYADSMKGRITISRDNAKNSLYLQMNSLRAEDTALYHCVRDQWLVRGLDYWGQGTLVTVSS VL: DIQMTQSPSSLSASVGDRVTITCRASQGIYNYLAWFQQKPGKAPKSLIYAASSLQSGVPSKFSGSGSGTDFTLTISSLQPEDFATYYCQQYNTYPYTFGQGTKLEIK | no binding | 192 | 0.309 | 0.000134 | 432000 | 86.5 | 213 | 0.187 | 0.000132 | 706000 | 87.5 | 0 | no binding (tested: 100 nM) | 211 | 0.0868 | 6.85e-05 | 252 | 275 | 0 | 242 | kon [5]: 789000 M⁻¹ s⁻¹; t½ [5]: 169 min; Kd [6]: 0.49 nM; koff [6]: 0.000222 s⁻¹; kon [6]: 453000 M⁻¹ s⁻¹; t½ [6]: 52.1 min; Kd [7]: 0.349 nM; koff [7]: 0.000273 s⁻¹; kon [7]: 782000 M⁻¹ s⁻¹; t½ [7]: 42.3 min; Kd [9]: 0.121 nM; koff [9]: 0.000101 s⁻¹; kon [9]: 838000 M⁻¹ s⁻¹; t½ [9]: 114 min
2 | mAb22809 (antibody, V domains shown) VH: QLQLRESGPGLVKPSETLSLTCTVSGGSINDNSFFWDWIRQTPGRGLEWIGNIFFDGNTYYTPSLKSRVIISVDMSQNQFSLRLTSVTAADTALYYCARHKRSMTAWGFFDYWGQGTLVTVSS VL: DIQMTQSPSSLSASVGDRVTITCRASKRINTYLNWYQQKPGKAPKVLIYSASNLQSGVPSRFSGSGSGTDFTLTINSLQPEDFATYFCQQSFSAPPITFGQGTRLEIK | no binding | 0 | – | – | – | – | 0 | – | – | – | – | 0 | no binding (tested: 100 nM) | -2 | – | – | -1 | 1 | 0 | -1 | binding result [3]: no binding (tested: 100 nM)
3 | mAb25498 (antibody, V domains shown) VH: QVQLVESGGGVVQPGRSLRLSCVASGFTFSSYGMVWVRQTPGKGLEWVAVIWHDGTNNYYADSVKGRFTISRDNSKNTLYLQMNSLRAEDTAVYYCAREPWLVRGYYYYAMDVWGQGTTVTVSS VL: not shown | no binding | 68 | 81 | 0.00182 | 22500 | 6.3 | 114 | 27.2 | 0.00158 | 57900 | 7.3 | 0 | no binding (tested: 100 nM) | 94 | 3.65 | 0.000255 | 97 | 151 | 0 | 129 | kon [5]: 69800 M⁻¹ s⁻¹; t½ [5]: 45.3 min; Kd [6]: 184 nM; koff [6]: 0.00415 s⁻¹; kon [6]: 22500 M⁻¹ s⁻¹; t½ [6]: 2.8 min; Kd [7]: 52.1 nM; koff [7]: 0.00369 s⁻¹; kon [7]: 70700 M⁻¹ s⁻¹; t½ [7]: 3.1 min; Kd [9]: 6.41 nM; koff [9]: 0.000568 s⁻¹; kon [9]: 88600 M⁻¹ s⁻¹; t½ [9]: 20.3 min
4 | mAb25502 (antibody, V domains shown) VH: QLQLQESGPGLVKPSETLSLTCTVSGGSISSSSYYWGWIRQPPGKGLEWIGSIYYSGSPYYIPSLKSRVTISVDTSKNQFSLKLSSVTAADTAMYYCARQGRGIARAGPFDYWGQGTLVTVSS VL: DIQMTQSPSSLSASVGDRVTITCRASQGISNYLAWYQEKPGKVPKLLIYAASTLQSGVPSRFSGSGSGTDFTLTITSLQSEDVATYYCQKYNSAPPWTFGQGTKVEIK | no binding | 2 | – | – | – | – | 3 | – | – | – | – | 0 | no binding (tested: 100 nM) | – | – | – | 4 | 6 | 0 | – | binding result [3]: no binding (tested: 100 nM); binding result [6]: no binding (tested: 100 nM); Kd [10]: 0.994 nM; koff [10]: 8.74e-05 s⁻¹; kon [10]: 87900 M⁻¹ s⁻¹; t½ [10]: 132 min
